± gives the standard deviation of the averaged measurements.
B1: library; a variant is named by its letters at N, in order (parent)
chain: GCUGUCACCGGAAUACCAGCAUCGUCUUGAUGCCCUUGGAAGUCCGGUCUGAUGAGUCCNNNNNGGACGAAACAGC

How the values were obtained:
[1] = variants of: B1; assay: FACS-Seq fitted mean relative fluorescence mCherry/BFP without ligand (log10 relative fluorescence); higher = higher reporter protein expression; conditions: HEK293T, ligand present: no
Method in brief: (§1)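 Fluorescence is reported as a normalized fitted mean of sorted-bin read counts. Lentivirally transduced HEK293T libraries (mCherry ribozyme-switch reporter, EF1α-BFP marker) were enriched, treated with or without ligand for 48 h, and sorted into 6 mCherry/BFP bins for MiSeq sequencing of PCR-amplified genomic DNA. The normal fit was on log10(mCherry/BFP), scaled to five spiked-in control ribozymes.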

[2] = variants of: B1; assay: normalized RNA/DNA level with ligand (relative to sTRSVctl = 100) (log10 (% of sTRSVctl)); higher = less ribozyme self-cleavage, higher mRNA level; conditions: ligand concentration (+) RNA-Seq: 5 mM, HEK293T, reporter: mCherry (pCS4076), ligand present: yes
Method in brief: (§2)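 Ribozyme switch library plasmids with mCherry reporters (eGFP in certain ligand experiments) went into HEK293T cells at 4 µg per 6-well well. Where ligand was used, it was applied 1 h before transfection, and total RNA was extracted with EDTA 72 h later for reverse transcription, amplification, barcoding and sequencing. RNA level is the RNA-to-DNA read ratio normalized to a spiked-in non-cleaving sequence or to the leading sequences, then scaled and log-transformed. Scaling was ×100 with log10, the leading set comprised 25 sequences, and the cutoff was ≥100 DNA reads.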

[3] = variants of: B1; assay: normalized RNA/DNA level without ligand (relative to sTRSVctl = 100) (log10 (% of sTRSVctl)); higher = less ribozyme self-cleavage, higher mRNA level; conditions: HEK293T, reporter: mCherry (pCS4076), ligand present: no
Method in brief: as §2

[4] = variants of: B1; assay: FACS-Seq fitted mean relative fluorescence mCherry/BFP with ligand (log10 relative fluorescence); ligand concentration (+) FACS-Seq: 1 mM; higher = higher reporter protein expression; conditions: HEK293T, ligand present: yes
Method in brief: as §1

| Variant | FACS-Seq fitted mean (log10) [1] | normalized RNA/DNA level with ligand (log10) [2] | normalized RNA/DNA level without ligand (log10) [3] | FACS-Seq fitted mean (log10) [4] |
| --- | --- | --- | --- | --- |
| AUUAG | 0.738 ± 0.021 | 2.049 ± 0.0068 | 1.9 ± 0.094 | 0.738 ± 0.013 |
| CGAAA | 0.0755 ± 0.05 | 1.94 ± 0.023 | 1.31 ± 0.092 | 0.587 ± 0.042 |
| UAGUA | 0.245 ± 0.011 | 1.87 ± 0.019 | 1.45 ± 0.074 | 0.503 ± 0.008 |
| UAGUC | 0.521 ± 0.015 | 1.925 ± 0.01 | 1.88 ± 0.067 | 0.4472 ± 0.0043 |
| AAUUA | 0.392 ± 0.024 | 1.973 ± 0.0011 | 1.63 ± 0.13 | 0.477 ± 0.006 |
| AAUUC | 0.308 ± 0.094 | 1.981 ± 0.015 | 1.96 ± 0.033 | 0.335 ± 0.031 |
| GAGAU | 0.787 ± 0.038 | 1.97 ± 0.038 | 1.73 ± 0.074 | 0.958 ± 0.062 |
| UCCUU | 0.983 ± 0.13 | 2.011 ± 0.0076 | 1.94 ± 0.053 | 1.01 ± 0.082 |
| CGCGU | 0.348 ± 0.12 | 1.91 ± 0.11 | 1.842 ± 0.0033 | 0.441 ± 0.23 |
| AUUGU | 1.06 ± 0.018 | 2.04 ± 0.047 | 1.88 ± 0.064 | 1.15 ± 0.022 |
| AUUGA | 0.66 ± 0.051 | 1.99 ± 0.038 | 1.79 ± 0.08 | 0.85337 ± 0.00081 |
| GCGAU | 0.428 ± 0.072 | 1.96 ± 0.025 | 1.7 ± 0.18 | 0.549 ± 0.1 |
| UAACC | 0.589 ± 0.058 | 1.92 ± 0.025 | 1.92 ± 0.04 | 0.702 ± 0.061 |
| CAGUA | 0.206 ± 0.0074 | 1.95 ± 0.15 | 1.27 ± 0.084 | 0.675 ± 0.018 |
| AACCC | 0.867 ± 0.012 | 2.042 ± 0.014 | 1.97 ± 0.031 | 0.862 ± 0.045 |
| AACCA | 0.923 ± 0.12 | 2.001 ± 0.0053 | 1.82 ± 0.047 | 0.908 ± 0.065 |
| UCACA | 0.565 ± 0.12 | 2 ± 0.027 | 1.48 ± 0.097 | 0.896 ± 0.07 |
| UCACC | -0.0671 ± 0.15 | 1.92 ± 0.022 | 1.93 ± 0.053 | 0.0211 ± 0.046 |
| UCGGU | 0.776 ± 0.2 | 2.084 ± 0.0052 | 1.8 ± 0.16 | 0.68 ± 0.021 |
| UAGCG | 1.09 ± 0.18 | 1.94 ± 0.066 | 1.9 ± 0.019 | 1.08 ± 0.016 |
| ACCCA | 0.9 ± 0.021 | 2.02 ± 0.044 | 1.93 ± 0.066 | 0.869 ± 0.033 |
| CGGCC | 0.745 ± 0.024 | 2.06 ± 0.1 | 2.03 ± 0.1 | 0.6421 ± 0.002 |
| CCCUC | 0.893 ± 0.045 | 2.032 ± 0.012 | 2.11 ± 0.057 | 0.84 ± 0.019 |
| UGGUU | 0.9379 ± 0.005 | 2.042 ± 0.011 | 1.846 ± 0.0051 | 1.01 ± 0.049 |

| Variant | FACS-Seq fitted mean (log10) [1] | normalized RNA/DNA level with ligand (log10) [2] | normalized RNA/DNA level without ligand (log10) [3] | FACS-Seq fitted mean (log10) [4] |
| --- | --- | --- | --- | --- |
| GAAAC | 0.594 ± 0.018 | 1.97 ± 0.025 | 1.77 ± 0.072 | 0.621 ± 0.075 |
| GAAAU | 0.796 ± 0.0017 | 2.01 ± 0.038 | 1.71 ± 0.059 | 1.04 ± 0.097 |
| AAAGG | 0.199 ± 0.022 | 1.976 ± 0.019 | 1.71 ± 0.033 | 0.426 ± 0.04 |
| AAAGA | -0.192 ± 0.043 | 1.92 ± 0.08 | 1.32 ± 0.06 | 0.259 ± 0.0043 |
| UUGAA | 0.273 ± 0.006 | 1.94 ± 0.08 | 1.29 ± 0.064 | 0.619 ± 0.026 |
| CGUCC | 0.784 ± 0.02 | 2.01 ± 0.086 | 2 ± 0.044 | 0.87 ± 0.021 |
| UAUUC | 0.679 ± 0.022 | 1.99 ± 0.089 | 1.94 ± 0.11 | 0.6994 ± 0.0049 |
| GACAU | 0.478 ± 0.063 | 2.04 ± 0.032 | 1.859 ± 0.0069 | 0.576 ± 0.07 |
| ACAGU | 0.512 ± 0.024 | 1.94 ± 0.057 | 1.65 ± 0.095 | 0.73 ± 0.011 |
| CUACA | 0.702 ± 0.027 | 2.031 ± 0.0063 | 1.84 ± 0.021 | 0.826 ± 0.11 |
| AAUCU | 0.634 ± 0.065 | 1.94 ± 0.026 | 1.87 ± 0.026 | 0.57 ± 0.049 |
| ACGAU | 0.425 ± 0.067 | 2.06 ± 0.059 | 1.69 ± 0.15 | 0.552 ± 0.049 |
| ACGAA | 0.287 ± 0.046 | 1.97 ± 0.098 | 1.51 ± 0.045 | 0.661 ± 0.025 |
| ACGAC | 1.26 ± 0.14 | 1.981 ± 0.0072 | 1.834 ± 0.018 | 1.19 ± 0.2 |
| GUGAU | -0.224 ± 0.019 | 2 ± 0.12 | 1.66 ± 0.024 | -0.0667 ± 0.046 |
| UACAA | 0.427 ± 0.022 | 1.972 ± 0.012 | 1.6 ± 0.032 | 0.553 ± 0.018 |
| AUGUA | 0.696 ± 0.018 | 1.97 ± 0.11 | 1.77 ± 0.046 | 0.908 ± 0.042 |
| ACGUA | 0.721 ± 0.11 | 2.011 ± 0.017 | 1.62 ± 0.19 | 0.9207 ± 0.0039 |
| ACGUG | 0.7349 ± 0.0044 | 1.99 ± 0.14 | 1.76 ± 0.033 | 0.974 ± 0.16 |
| CAAUU | 0.59 ± 0.019 | 2.02 ± 0.033 | 1.65 ± 0.096 | 0.775 ± 0.021 |
| GCAUG | 0.8295 ± 0.0081 | 1.939 ± 0.013 | 1.79 ± 0.026 | 0.966 ± 0.067 |
| CUGAU | 1.02 ± 0.13 | 1.995 ± 0.013 | 1.7215 ± 0.00053 | 1.07 ± 0.082 |
| UGCCU | 0.875 ± 0.16 | 2.08 ± 0.077 | 1.891 ± 0.007 | 0.867 ± 0.079 |
| AGGAC | 0.549 ± 0.067 | 1.97 ± 0.089 | 1.81 ± 0.12 | 0.721 ± 0.074 |

| Variant | FACS-Seq fitted mean (log10) [1] | normalized RNA/DNA level with ligand (log10) [2] | normalized RNA/DNA level without ligand (log10) [3] | FACS-Seq fitted mean (log10) [4] |
| --- | --- | --- | --- | --- |
| GUAAU | 0.914 ± 0.062 | 1.937 ± 0.015 | 1.82 ± 0.085 | 0.966 ± 0.16 |
| GUAAA | 0.745 ± 0.13 | 1.982 ± 0.016 | 1.7 ± 0.045 | 0.936 ± 0.11 |
| GCAAC | 0.716 ± 0.09 | 1.93 ± 0.066 | 1.826 ± 0.0042 | 0.739 ± 0.094 |
| UGAAC | 1.07 ± 0.11 | 1.97 ± 0.06 | 1.84 ± 0.036 | 0.983 ± 0.022 |
| UGAAU | 0.471 ± 0.056 | 1.94 ± 0.057 | 1.77 ± 0.15 | 0.732 ± 0.045 |
| AAUAU | -0.0622 ± 0.051 | 1.99 ± 0.083 | 1.75 ± 0.024 | 0.253 ± 0.077 |
| UCAAU | 0.686 ± 0.07 | 2 ± 0.028 | 1.83 ± 0.095 | 0.789 ± 0.093 |
| GAGCU | 0.479 ± 0.21 | 1.96 ± 0.14 | 1.8 ± 0.11 | 0.5269 ± 0.0042 |
| AAUGG | 0.773 ± 0.076 | 2.06 ± 0.078 | 1.73 ± 0.094 | 0.962 ± 0.016 |
| AAUGU | 0.7078 ± 0.0026 | 1.99 ± 0.056 | 1.77 ± 0.23 | 0.788 ± 0.011 |
| AAUGC | 0.537 ± 0.0095 | 2 ± 0.06 | 1.89 ± 0.025 | 0.692 ± 0.11 |
| GACCU | 1.03 ± 0.1 | 1.99 ± 0.064 | 1.95 ± 0.06 | 1.03 ± 0.15 |
| AGUAC | 0.729 ± 0.04 | 1.997 ± 0.019 | 1.83 ± 0.068 | 0.749 ± 0.072 |
| CCGGU | 0.937 ± 0.27 | 1.97 ± 0.064 | 1.84 ± 0.064 | 0.944 ± 0.14 |
| AAGCC | 0.748 ± 0.02 | 2.03 ± 0.089 | 2.01 ± 0.071 | 0.7196 ± 0.0051 |
| AAGCU | 0.983 ± 0.1 | 2.05 ± 0.094 | 1.78 ± 0.077 | 1.11 ± 0.11 |
| CGCCU | 0.291 ± 0.031 | 2.08 ± 0.074 | 1.78 ± 0.12 | 0.38 ± 0.021 |
| UAAGG | 0.645 ± 0.086 | 2.1 ± 0.067 | 1.89 ± 0.041 | 0.739 ± 0.044 |
| UAAGA | -0.11 ± 0.071 | 1.9752 ± 0.00034 | 1.48 ± 0.16 | 0.22 ± 0.072 |
| UCGAA | 0.342 ± 0.019 | 1.97 ± 0.055 | 1.48 ± 0.066 | 0.951 ± 0.086 |
| CAGCA | 0.319 ± 0.011 | 1.88 ± 0.099 | 1.52 ± 0.1 | 0.461 ± 0.062 |
| CCUGA | 0.9447 ± 0.0047 | 2.02 ± 0.028 | 1.92 ± 0.16 | 0.904 ± 0.0082 |
| AAAUG | 0.571 ± 0.038 | 2.03 ± 0.022 | 1.75 ± 0.054 | 0.607 ± 0.029 |
| AAAUU | 0.984 ± 0.045 | 2.02 ± 0.1 | 1.82 ± 0.082 | 1.05 ± 0.06 |
